In article PMC4481117, “The opioid peptide dynorphin A induces leukocyte responses via integrin Mac-1 (αMβ2, CD11b/CD18)” (Molecular Pain, 2015):
cellulose = cellulose membrane support; βAla = NCCC(=O)O

B1: dynorphin A (peptide)
peptide: YGGFLRRIRPKLKWDNQ
B2: dynorphin AB library peptide, spot 1 (YGGFLRRIR) (peptide)
peptide: Ac-YGGFLRRIR-{βAla-βAla-cellulose}
notes: 9-mer of dynorphin AB; also called peptide #1; source: synthetic peptide, parallel spot synthesis on cellulose membrane
B3: dynorphin AB library peptide, spot 2 (FLRRIRPKL) (peptide)
peptide: Ac-FLRRIRPKL-{βAla-βAla-cellulose}
notes: 9-mer of dynorphin AB; source: synthetic peptide, parallel spot synthesis on cellulose membrane

Tests used:
[1] = target: integrin Mac-1 on IC-21 murine macrophages (mouse (endogenous in IC-21), UniProt P05555 17-1153; P11835 24-771); test: cell-based or functional assay
Sequence of integrin Mac-1 on IC-21 murine macrophages (P05555 17-1153, chain 1 of 2): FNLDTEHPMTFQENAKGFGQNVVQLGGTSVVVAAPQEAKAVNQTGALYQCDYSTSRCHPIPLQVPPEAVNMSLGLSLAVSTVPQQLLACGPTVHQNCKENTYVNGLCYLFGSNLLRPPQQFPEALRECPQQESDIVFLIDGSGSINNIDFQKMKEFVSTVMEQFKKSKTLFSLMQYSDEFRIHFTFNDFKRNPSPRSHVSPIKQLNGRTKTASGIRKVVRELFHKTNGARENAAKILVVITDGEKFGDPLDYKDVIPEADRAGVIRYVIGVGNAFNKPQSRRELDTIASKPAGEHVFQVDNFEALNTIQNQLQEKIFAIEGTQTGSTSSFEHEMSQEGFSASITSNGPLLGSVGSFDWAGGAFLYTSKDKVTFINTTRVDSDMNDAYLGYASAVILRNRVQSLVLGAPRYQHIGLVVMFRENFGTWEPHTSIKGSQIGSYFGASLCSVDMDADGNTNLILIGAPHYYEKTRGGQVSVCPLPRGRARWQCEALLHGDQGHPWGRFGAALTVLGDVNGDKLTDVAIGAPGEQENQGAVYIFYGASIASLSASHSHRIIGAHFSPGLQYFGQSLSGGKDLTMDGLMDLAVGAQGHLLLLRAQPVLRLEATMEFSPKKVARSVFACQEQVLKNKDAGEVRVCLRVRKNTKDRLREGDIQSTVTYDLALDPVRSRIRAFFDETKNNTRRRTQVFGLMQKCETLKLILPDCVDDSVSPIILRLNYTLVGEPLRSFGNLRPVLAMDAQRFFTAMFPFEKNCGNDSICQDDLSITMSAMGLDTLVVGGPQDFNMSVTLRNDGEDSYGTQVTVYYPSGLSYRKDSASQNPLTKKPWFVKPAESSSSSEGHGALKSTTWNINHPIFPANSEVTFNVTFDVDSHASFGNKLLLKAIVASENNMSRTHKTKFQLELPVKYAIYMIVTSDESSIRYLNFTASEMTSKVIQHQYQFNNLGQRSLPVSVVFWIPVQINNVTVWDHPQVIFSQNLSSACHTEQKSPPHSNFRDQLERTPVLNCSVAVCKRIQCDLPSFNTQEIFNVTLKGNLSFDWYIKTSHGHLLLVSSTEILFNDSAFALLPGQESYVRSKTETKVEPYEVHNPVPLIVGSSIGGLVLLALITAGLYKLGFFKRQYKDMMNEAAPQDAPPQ
Sequence of integrin Mac-1 on IC-21 murine macrophages (P11835 24-771, chain 2 of 2): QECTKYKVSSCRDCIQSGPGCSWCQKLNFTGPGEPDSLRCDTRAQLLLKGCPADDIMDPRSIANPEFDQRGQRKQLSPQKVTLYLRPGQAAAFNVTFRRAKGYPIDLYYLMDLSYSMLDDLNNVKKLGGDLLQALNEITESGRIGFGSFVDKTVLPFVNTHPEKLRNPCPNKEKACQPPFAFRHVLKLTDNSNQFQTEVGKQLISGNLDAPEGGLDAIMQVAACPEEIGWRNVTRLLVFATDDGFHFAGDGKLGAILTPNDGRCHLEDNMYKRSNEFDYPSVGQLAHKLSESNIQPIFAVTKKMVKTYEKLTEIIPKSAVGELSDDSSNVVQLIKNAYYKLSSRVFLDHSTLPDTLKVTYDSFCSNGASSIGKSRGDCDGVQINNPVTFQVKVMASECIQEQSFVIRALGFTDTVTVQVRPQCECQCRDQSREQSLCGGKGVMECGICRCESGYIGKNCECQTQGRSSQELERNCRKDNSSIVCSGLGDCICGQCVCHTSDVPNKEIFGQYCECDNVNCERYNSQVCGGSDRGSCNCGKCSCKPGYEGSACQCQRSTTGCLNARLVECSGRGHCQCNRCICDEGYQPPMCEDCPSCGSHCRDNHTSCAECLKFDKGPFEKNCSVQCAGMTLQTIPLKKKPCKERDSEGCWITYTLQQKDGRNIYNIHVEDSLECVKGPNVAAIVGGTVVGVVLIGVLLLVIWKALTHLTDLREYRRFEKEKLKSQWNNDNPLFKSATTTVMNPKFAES

[2] = target: T1, 125I-labeled αMI-domain, active form (αM Glu123-Lys315) (UniProt P11215 139-331, 125I label); test: peptide or protein array; 9-mer peptides on cellulose membrane (SPOT synthesis), blocked with 1 % BSA, incubated with 10 μg/ml 125I-labeled αMI-domain in TBS with 1 mM MgCl2; autoradiography and densitometry; conditions: both partners purified
T1 construct: also called recombinant αMI-domain; α7 helix-truncated αMI-domain
T1 sequence (P11215 139-331): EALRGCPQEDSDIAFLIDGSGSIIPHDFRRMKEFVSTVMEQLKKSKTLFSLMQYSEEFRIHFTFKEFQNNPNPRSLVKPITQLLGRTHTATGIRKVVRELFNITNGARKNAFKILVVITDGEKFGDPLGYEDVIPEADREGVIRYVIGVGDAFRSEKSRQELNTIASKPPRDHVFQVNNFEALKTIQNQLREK

Binder | phagocytosis of Dyn A-treated fluorescent latex beads by IC-21 murine macrophages, against control beads [1] [fold] | binding result [2]
B1 | ~10 | –
B2 | – | binds
B3 | – | binds
